Data reported in patent US20140120109A1 (Regeneron, published 2014).

Molecular target: T1, mouse TL1A, soluble, CHO-expressed, residues 76-252 of SEQ ID NO:250 with N-terminal His6-tag (mouse, UniProt Q5UBV8 76-252)
T1 construct: also called mTL1A; mTL1A (CHO)
T1 sequence: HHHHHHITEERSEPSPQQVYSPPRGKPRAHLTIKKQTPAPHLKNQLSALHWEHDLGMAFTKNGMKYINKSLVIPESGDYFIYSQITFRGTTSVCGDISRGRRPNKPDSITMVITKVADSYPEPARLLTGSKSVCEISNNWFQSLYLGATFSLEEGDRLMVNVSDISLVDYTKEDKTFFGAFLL
Test: SPR 25C, mAb captured; 25 C, CHO-expressed mTL1A, SPR
Experimental: Measurements were conducted on a T100 BIACORE™ instrument. […] Kinetic association (kₐ) and dissociation (kd) rate constants were determined by fitting the data to a 1:1 binding model using BIAevaluation 4.1 curve fitting software (BIAcore Life Sciences). Molar concentrations of TL1A/Fhm used in the data fitting assumed a monomeric state for TL1A in solution. Binding dissociation equilibrium constants (KD) and dissociative half-lives (t_{1/2}) were calculated from the kinetic rate constants as: KD (M)=kd/kₐ; and t_{1/2} (min)=[In2/(60*kd)].

B1: H4H1818N (antibody, human IgG4 S228P, V domains shown)
VH: RLQLVESGGGLVKPGGSLKLSCAASGFTISDYYMSWIRQAPGKGLEWVSYIGGSGSTIYYADSVKGRFTISRDNAKNSLYLQMNSLRAEDTAVYYCAREDADSYYYYGMDVWGQGTTVTVSS
VL: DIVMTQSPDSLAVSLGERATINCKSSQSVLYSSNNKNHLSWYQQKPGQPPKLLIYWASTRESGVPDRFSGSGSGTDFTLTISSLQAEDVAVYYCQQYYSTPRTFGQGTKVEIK
notes: human IgG4(S108P) form of H2M1818N
- Kd: 7.1 nM
- t1/2: 12 min
